Drawing on publication doi:10.1101/2023.08.28.555145, this text covers stoichiometry N for two substances.

Assay [1] deals with Arabidopsis uracil phosphoribosyltransferase (UPP), wild type, recombinant (Arabidopsis thaliana). The assay is described as follows: SEC. On the technique in general: SEC sorts molecules by how far they enter the pores of the column.
Assay [2] addresses UPP-G224L, recombinant (Arabidopsis thaliana). Briefly: SEC.

As for “Arabidopsis uracil phosphoribosyltransferase (UPP), wild type, recombinant (enzyme)”, the stoichiometry N (in general, a count of units in the complex or per binding partner) in assay [1] came to 4.

Turning to UPP-G224L, recombinant (enzyme), in assay [2], the stoichiometry N turned out to be 2.
